Data as given in patent US20110008345A1 (GlaxoSmithKline, published 2011).
Substitutions are numbered along the chain they refer to. Like-named read-outs stand apart in the source and are kept apart here.

Assays:
[1] = target: T1, recombinant E. coli-expressed cynomolgus IL-13 (cynomolgus, UniProt Q0PW92 21-132); assay: SPR
T1 construct: also called cyno IL-13

[2] = target: T2, recombinant E. coli-expressed human IL-13 (human, UniProt P35225 35-146); assay: SPR exp 1
T2 construct: made and purified at GSK; also called Interleukin-13; rhIL-13

[3] = target: T3, recombinant E. coli-expressed human IL-4 (human, UniProt P05112 25-153); assay: SPR exp 1
T3 construct: made and purified at GSK; also called Interleukin-4; rhIL-4
T3 sequence: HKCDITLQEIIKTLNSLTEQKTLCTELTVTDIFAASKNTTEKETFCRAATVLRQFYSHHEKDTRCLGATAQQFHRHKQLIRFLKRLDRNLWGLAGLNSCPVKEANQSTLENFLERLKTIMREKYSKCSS

[4] = target: T2, recombinant E. coli-expressed human …; assay: SPR exp 2
[5] = target: T3, recombinant E. coli-expressed human IL-4; assay: SPR exp 2
[6] = target: T2, recombinant E. coli-expressed human …; assay: cell-based or functional assay
[7] = target: T1, recombinant E. coli-expressed …; assay: cell-based or functional assay
[8] = target: T2, recombinant E. coli-expressed human …; assay: ELISA, IL-13 binding to IL13Ralpha2/Fc
[9] = target: T4, recombinant Sf21-expressed human IL-5 (human, UniProt P05113 20-134); assay: ELISA
[10] = target: T2, recombinant E. coli-expressed human …; assay: SPR
[11] = target: T2, recombinant E. coli-expressed human …; assay: SPR; remark: listed apart in the source
[12] = target: T2, recombinant E. coli-expressed human …; assay: SPR; remark: listed apart in the source
[13] = target: T1, recombinant E. coli-expressed …; assay: SPR; remark: listed apart in the source
[14] = target: T5, recombinant E. coli-expressed cynomolgus IL-4 (cynomolgus, UniProt P79339 25-153); assay: SPR
T5 construct: also called cyno IL-4
T5 sequence (looked up): T3 sequence with E26K, V29I, F33L

[15] = target: T2, recombinant E. coli-expressed human …; assay: SPR; remark: listed apart in the source
[16] = target: T1, recombinant E. coli-expressed …; assay: SPR; remark: listed apart in the source
[17] = target: T2, recombinant E. coli-expressed human …; assay: SPR exp 1; remark: listed apart in the source
[18] = target: T2, recombinant E. coli-expressed human …; assay: SPR exp 2; remark: listed apart in the source
[19] = target: T2, recombinant E. coli-expressed human …; assay: SPR exp 1; remark: listed apart in the source
[20] = target: T3, recombinant E. coli-expressed human IL-4; assay: SPR exp 1; remark: listed apart in the source
[21] = target: T2, recombinant E. coli-expressed human …; assay: SPR exp 3
[22] = target: T2, recombinant E. coli-expressed human …; assay: SPR, purified
[23] = target: T2, recombinant E. coli-expressed human …; assay: SPR, purified; remark: listed apart in the source
[24] = target: T2, recombinant E. coli-expressed human …; assay: SPR stoichiometry
[25] = target: T2, recombinant E. coli-expressed human …; assay: SPR, no IL-4 bound
[26] = target: T2, recombinant E. coli-expressed human …; assay: cell-based or functional assay; remark: listed apart in the source
[27] = target: T3, recombinant E. coli-expressed human IL-4; assay: SPR
[28] = target: T3, recombinant E. coli-expressed human IL-4; assay: SPR, positive dissociation
[29] = target: T3, recombinant E. coli-expressed human IL-4; assay: SPR, purified
[30] = target: recombinant E. coli-expressed human IL-18 (human, UniProt Q14116 37-193); assay: SPR
[31] = target: T2, recombinant E. coli-expressed human …; assay: ELISA
[32] = target: T3, recombinant E. coli-expressed human IL-4; assay: ELISA
[33] = target: T4, recombinant Sf21-expressed human IL-5; assay: SPR
[34] = target: T6, RNAse A (UniProt P61823 27-150); assay: ELISA
T6 sequence (looked up): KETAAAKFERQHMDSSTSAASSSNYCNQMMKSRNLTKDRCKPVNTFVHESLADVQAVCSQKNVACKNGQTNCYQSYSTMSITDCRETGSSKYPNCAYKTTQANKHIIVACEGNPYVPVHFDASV

[35] = target: T7, HEL (Hen Egg Lysozyme) (hen, UniProt P00698 19-147); assay: ELISA
T7 construct: also called hen egg white lysozyme
T7 sequence (P00698 19-147): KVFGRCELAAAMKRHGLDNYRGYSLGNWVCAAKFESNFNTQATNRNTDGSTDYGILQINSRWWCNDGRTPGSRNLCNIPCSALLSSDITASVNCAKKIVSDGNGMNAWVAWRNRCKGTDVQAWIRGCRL

[36] = target: recombinant human TNF-alpha (human, UniProt P01375 77-233); assay: ELISA, supernatant
[37] = target: T3, recombinant E. coli-expressed human IL-4; assay: ELISA, supernatant

B1: PascoH-TVAAPS-616 (bispecific antibody, human IgG1, kappa)
heavy: not shown
light: DIVLTQSPSSLSASVGDRVTITCKASQSVDYDGDSYMNWYQQKPGKAPKLLIYAASNLESGIPSRFSGSGSGTDFTFTISSLQPEDIATYYCQQSNEDPPTFGQGTKVEIKRTVAAPSVFIFPPSDEQLKSGTASVVCLLNNFYPREAKVQWKVDNALQSGNSQESVTEQDSKDSTYSLSSTLTLSKADYEKHKVYACEVTHQGLSSPVTKSFNRGEC
In the case of B1, the Kd [1] is reported as 9.8 nM, the koff [1] is reported as 0.00451 s⁻¹ and the kon [1] is reported as 460000 M⁻¹ s⁻¹. It also gave a Kd [2] of 0.0497 nM, a Kd [3] of 0.003 nM and a Kd [4] of 0.056 nM. For the same binder, the Kd [5] was 0.005 nM, the “Mean ND50 (TF-1)” value [6] was 0.722 nM and the “Mean ND50 (TF-1)” value [7] was 14.5 nM. It also gave an IC50 [8] of 6.17 nM.

B2: Anti-human IL-13 monoclonal antibody (also known as 586) (antibody, human IgG1, kappa)
heavy: not shown
light: DIVMTQSPLSLPVTPGEPASISCRSSQNIVHINGNTYLEWYLQKPGQSPRLLIYKISDRFSGVPDRFSGSGSGTDFTLKISRVEADDVGIYYCFQGSHVPWTFGQGTKLEIKRTVAAPSVFIFPPSDEQLKSGTASVVCLLNNFYPREAKVQWKVDNALQSGNSQESVTEQDSKDSTYSLSSTLTLSKADYEKHKVYACEVTHQGLSSPVTKSFNRGEC
notes: also called Anti-human IL-13 mAb; anti-IL13 mAb
In the case of B2, the binding result [9] is reported as “no binding”, the Kd [10] is reported as 0.38 nM and the Kd [11] is reported as 0.41 nM. The Kd [12] was 0.38 nM, the Kd [13] was 0.222 nM and the koff [13] was 0.000105 s⁻¹. The kon [13] was 474000 M⁻¹ s⁻¹, the binding result [14] was “no binding” and the Kd [1] was 0.119 nM. For the same binder, the koff [1] was 6.55e-05 s⁻¹, the kon [1] was 550000 M⁻¹ s⁻¹ and the Kd [15] was 0.377 nM. The koff [15] was 0.000378 s⁻¹, the kon [15] was 1e+06 M⁻¹ s⁻¹ and the Kd [16] was 0.171 nM. It also gave a koff [16] of 8.22e-05 s⁻¹, a kon [16] of 479000 M⁻¹ s⁻¹ and a Kd [17] of 0.57 nM. It also gave a koff [17] of 0.00049 s⁻¹, a kon [17] of 860000 M⁻¹ s⁻¹ and a Kd [18] of 0.67 nM. For the same binder, the koff [18] was 0.000611 s⁻¹, the Kd [19] was 0.28 nM and the binding result [20] was “no binding (tested: 256 nM)”. It also gave a Kd [21] of 0.547 nM, a Kd [2] of 0.28 nM and a Kd [22] of 0.43 nM. The Kd [23] was 0.41 nM, the Stoichiometry [24] was 1.8 and the Kd [25] was 0.366 nM. For the same binder, the koff [25] was 0.000368 s⁻¹, the kon [25] was 1.01e+06 M⁻¹ s⁻¹ and the “Mean IC50 (whole blood phospho-STAT6)” value [26] was 1.47 nM. For the same binder, the IC50 [8] was 6.43 nM.

B3: 586H-TVAAPS-147 (bispecific antibody, human IgG1, kappa)
heavy: not shown
light: B2 light
For B3, the Kd [10] was 0.56 nM, the koff [27] was 6.69e-07 s⁻¹ and the kon [27] was 66200 M⁻¹ s⁻¹. For the same binder, the Kd [28] was 0.011 nM.

B4: 586H-TVAAPS-154 (bispecific antibody, human IgG1, kappa)
heavy: not shown
light: B2 light
For B4, the Kd [10] was 0.56 nM, the koff [27] was 1.15e-07 s⁻¹ and the kon [27] was 64400 M⁻¹ s⁻¹. For the same binder, the Kd [22] was 0.41 nM, the Kd [29] was 0.49 nM and the Kd [28] was 0.002 nM.

B5: Anti-human IL-18 (humanised) monoclonal antibody (antibody, human IgG1, kappa, V domains shown)
VH: QVQLVQSGAEVKKPGASVKVSCKVSGEISTGYYFHWVRQAPGKGLEWMGRIDPEDDSTKYAERFKDRVTMTEDTSTDTAYMELSSLRSEDTAVYYCTTWRIYRDSSGRPFYVMDAWGQGTLVTVSS
VL: DIQMTQSPSSVSASVGDRVTITCLASEDIYTYLTWYQQKPGKAPKLLIYGANKLQDGVPSRFSGSGSGTDYTLTISSLQPEDFATYYCLQGSKFPLTFGQGTKLEIKR
notes: also called Anti-human IL-18 mAb
In the case of B5, the Kd [30] is reported as 0.035 nM.

B6: Mepolizumab (Anti-human IL-5 monoclonal antibody) (antibody, human IgG1, kappa, V domains shown)
VH: QVTLRESGPALVKPTQTLTLTCTVSGFSLTSYSVHWVRQPPGKGLEWLGVIWASGGTDYNSALMSRLSISKDTSRNQVVLTMTNMDPVDTATYYCARDPPSSLLRLDYWGRGTLVTVSS
VL: DIVMTQSPDSLAVSLGERATINCKSSQSLLNSGNQKNYLAWYQQKPGQPPKLLIYGASTRESGVPDRFSGSGSGTDFTLTISSLQAEDVAVYYCQNVHSFPFTFGGGTKLEIKR
notes: also called IL-5 mAb; anti-human IL5 mAb
With B6 the binding result [31] was “no binding”, the binding result [32] was “no binding” and the Kd [33] was 0.34 nM.

B7: PascoL-ELQLE-474 (bispecific antibody, human IgG1, kappa)
heavy: not shown
light: DIVLTQSPSSLSASVGDRVTITCKASQSVDYDGDSYMNWYQQKPGKAPKLLIYAASNLESGIPSRFSGSGSGTDFTFTISSLQPEDIATYYCQQSNEDPPTFGQGTKVEIKRTVAAPSVFIFPPSDEQLKSGTASVVCLLNNFYPREAKVQWKVDNALQSGNSQESVTEQDSKDSTYSLSSTLTLSKADYEKHKVYACEVTHQGLSSPVTKSFNRGECELQLEESCAEAQDGELDGGSGVQLLESGGGLVQPGGSLRLSCAASGFTFAWYDMGWVRQAPGKGLEWVSSIDWHGEVTYYADSVKGRFTISRDNSKNTLYLQMNSLRAEDTAVYYCATAEDEPGYDYWGQGTLVTVSS
B7: binds [31]; binds [32].

B8: BPC1809 (bispecific antibody, human IgG1, kappa)
heavy: not shown
light: B1 light
notes: also called Anti IL-4 heavy Chain-GS-anti RNAse A camelidVHH
B8: binds [34]; binds [32].

B9: BPC1816 (bispecific antibody, human IgG1, kappa)
heavy: not shown
light: B1 light
notes: also called Anti IL-4 heavy Chain-GS-NARV
B9: binds [35]; binds [32].

B10: BPC1823 (bispecific antibody, human IgG1, kappa)
heavy: not shown
light: B1 light
notes: also called Anti IL-4 Heavy Chain-GS-anti TNF-a adnectin
B10: binds [36]; binds [37].

B11: BPC1822 (bispecific antibody, human IgG1, kappa)
heavy: not shown
light: B1 light
B11: binds [36]; binds [37].
